Experimental data as given in a protein production outcome set (Wang et al. 2014).

Test: label from the status in PepcDB records

Question: For “MRVTGVIIRIIRQFFRDKRSLAMMFGAPMLLLWLLSLVFTQKDYVPHIAVVDMPVQVVKVMKNQEASIYEYSKEKAMSELENQKVDAVIRLENGKMNIVLEGSDSSKNRAVLQILQKSTEKNDVSIMKPEVNYLHGSKDFTMFDGLGPVLIGFFTFFFVFILSGVSFVRERLSGTLERLLSTPIKRWEIVVGYIIGFGIFAFIQSIIIVSFSVYILDLYVAGSIWLTLLITCMLSLTALTLGTFLSAYANNEFQMIQFIPLVIVPQIFFSGLFPIESMNKWLQMLGKLFPLTYGADAMRQVMIRNQGFTEIALDLTVLLFFSVLFAVGNVFALKKHRKI”, which protein production is on record?
Answer: The protein production was “failed”.

Question: With “MRVVHILLQVGILYGFYLVGSWIQKSFELIVPGSIIGMVLLLIALAIKAISPKWIEQGSMQLLLLMPMLFLPVTVGIMEYWHMFHGSGFWLLIIAFVSTILVFIISGWITQWLIAWKTKGIDKHDHL” as the sequence, how does the protein production read?
Answer: Its protein production is “failed”.

Question: For “MRVVIVGAGKVGYSLAQYLTQEDHEVIVIEENEERRAIVQNTLDVMTISGNGASPRVLLDPEVRKAELMIAVTDMDEVNMIACMAAKQVGIKRTIARVRNQEYAEKDKIKFNEALGIDLTINPEMVTALEIKRILLTPSALDVEDFAGDRVRMIEVKMPSDSKLINTSLTQLTLPSHTLVAGILRNGRMLIPHGSDMLLPNDCVFFVGEVSAIKKIEDHFTVRKSKVERVLIIGAGRIGRHLAMILEKSDIAVKIIDKDMERCQELAESLDEGLVLCGEGTDIELLTEEGVGEADAVLCLTDDDKLNLLIALLAKHLGAPRTFVRVGRPDYISLMEKVGVDVVLSPRILTAGVILRYVRRSDVVSVSLLEGAKAEAMEIIIPPLSQVTHKKLKDAKLPKNSLIGSIVRDEEIIIPNGETVLKPGDRAIIFALPDTVPTVVRLFENKLESK”, which protein production is on record?
Answer: The protein production was “failed”.

Question: Which protein production does the source give for “MRVYDMHVHLHEYSDREVEEILDADKSLVVVAVSDDLESAWRTLDLWHTFGGRVVPCLGFHPWNVREGRVWEAWEVLRLAYRYGVPCLGEVGLDRRFVDEYTWRVQNEVFDAFVQLAEDMGVMLNIHAPDAWKHVAHRIGWTSRARFMYHWYTGPATLPRALPEGRVWFSINSAIRVQEKSVRVAREIPLRSLVVESDGPYNYRGLRLSPLMVRETVKLVAEARGEDPGRLMEAISLNSERLLGLL” here?
Answer: The protein production was “failed”.

Question: For “MRWKGRRVSSNVEDRRGSGAKVGGISIIGLVVAFVAWKFFGVDPQQAYQATQQITAAQNPSSNAPQQLTADQKEASDFVGTILADTEDTWTPIFKQLGQTYVPPKLVLFNGIVQSGCGTAQSAMGPFYCPTDQKVYIDTSFFKDMREQMGISGEQNQTELSRQDQAGDFAQAYVVAHEVGHHIQNLLGISSQVQQAQAQGSRAQANQLSVRLELQADCFAGIWANHNQQRTQFLEAGDIEEAMDAAQKIGDDYLQKRSTGQVVPDSFTHGTSQQRMHWFEVGLKSGDLNQCDTF”, which protein production is on record?
Answer: The protein production was “failed”.

Question: For “MRWVKAGELPMEAAYGATVSLPDRLIFIGGSNSSDRFSSVLSFSFDCMKDSGLICETLPPLPHAVDNMSATLLGDTLYVLGGNRNGIPSSSMFSLCLDNYSAGWTEVPFPGRPRVQPVCSSLLGKLYVFGGFTSGGDASVSTDGLCYHPESGQWQVVKAPLTTKGEPLTLTGGASVSYGDVLLICAGGVNRDIFEDAISARYQMVRESEYLLQPIEWYRFNDQLLAYNVRSGEWIRIGVPSPMLARAGSSLVVFGDILFYIGGELKPGVLEHHHHHH”, which protein production is on record?
Answer: The protein production was “failed”.

Question: Which protein production does the source give for “MRYGLRVEAITLWILGGLASLEAIPKEWNRELVIALAGPAVSILTGLACYAALFALPASAQVTLFVIGWLAVTNIFLAVFNMLPAFPMDGGRVLRALLARTRPYATATRIAARIGTGFAVLFAVVGVLSFSPLLLLLALFVYGAASSESRTVALAALLDGLSVDDVASPLDATIEANASVEDLVDRMFADRRTEFAVTRGGDVVGVVTVDDFRELSKAEREADTVADLMEADLPRFPAAMAAFDALVELDTARASAAFVDGPEGTRVVSRDDFSSAMEMRRLVDSPEPF” here?
Answer: Its protein production is “failed”.

Question: For “MRYGRTVPVTEAAELPPAPEQAREVFGDRFADAVRYAELLAEAGVQRGLIGPREVPRLWERHLLNCAVLSEVVPEGVTVCDVGSGAGLPGIPLALVREDLKITLLEPLLRRTNFLTEVVELLGLDHVTVIRGRAEEVMGKIPPVHVVTARAVAPLDRLATWGIPLLRPYGEMLALKGDTAEEELKSAATALSKLGAVETSVLHVGEGVVDPLSTVVRVEVGESPGGVRFAAKRAKAARTGRTRRRR”, which protein production is on record?
Answer: Its protein production is “failed”.

Question: With “MRYLFSLLFLLAYGSTVAQQPPMLPRDAAIEAKIEKLLEQMSLDEKIGQMVELEIGMITYRDPRYVVEKLARMSEQELADTLRRFGLDKQHNAAQLALTTPEDKQNKEKLMRLYWVSNDIQSKLPFRLDEAALDSVVGKYKVGSILNAPQTTAQTPAMWNQVVKTIQDVSIKHLGIPTVYGLDQMHGTTYSTGGTLFPGAINMAATFNRDLVYKMGEIVAYETRACNVPWIYGPCIDLGRMQAWSRQYESFGEDVFLSSEMGAAALRGMQGDNPNHIDAYHVAGCLKHYFAYGAPYNGLDRSPARLSYEELREKQFAPFLRGIREGALSIMTNSSNVNGVKGTVNREFITGWLKEGLGWDGMVVTDWGDIDGAVTSDRVVPTAKEAIRLAINAGVDMMMVPSQFTYNGLLKELVEEGGVSMERIDDAVRRILRLKHRVGLFEQPNTFAKDYPKFGSEEFAAYSRQAALESIVLLKNDSVDSQSRLLPIKQGTRLLVCGPNANSMRTLNGGWSYTWQGDGADREEFTGHFNTIYEALRNKFGSNHVTLVEGVSYDSKRWAMDHADNIGDAVAAAADNDYVIVCIGENTYAETRGNIADINLSTNQKNLVKALAATGKPIILVLNESRGRAISDIEPLAKAVVHTMLPGNYGGDALAELLAGNENFSGRLPYTYSAQPNAMVNYDYKASEVRETISGVYDYNAKTYEQWWFGAGMSYTTYTYSNLRADKNSFTKDDVLTFTVDVKNTGAMAGKETVMLYASDLYASLMPDNRRLRGFEKIVLAPDESKTVTFRIKASDLAFMGTGKKWTLEAGEFNIACGDQSVSIHCTEDYTWEEENIPDN” as the sequence, how does the protein production read?
Answer: Its protein production is “failed”.

Question: With “MSADIEHIRQIMREADCLYTEAEVDAAIARVGAQINAELADRNPVVFCVMNGGLIFSGKLLTHLNFPLEASYLHATRYRNETTGGDLFWKAKPEVSFIDRDVLIIDDILDEGHTLGAIIDFCKHAGARAVHTAVLIDKDHDRKARPDLKADYVGLPCIDRYIFGFGMDYKGYWRNAAGIYAVKG” as the sequence, how does the protein production read?
Answer: Its protein production is “failed”.

Question: Which protein production does the source give for “MSADTSSLDFHPLRADLYQELHSRPFQIIPPHARVTQIAVITTPEQRTRQFEHLQKLHRLLGEPWPEQEVSCYEQSFGKLRIRREVHMEFTSYTFINLADSDADPFAETGLSLLPDGWLAQLEGTVVGAFHVEVRSSSEDARSELAFMRKHFEGMRLVGSSPQEGAARVLGSFQLHSDNFGRFMVLNHHMSNSQLGRLIQRLMEIETYRLMSLLALPVAREITPSLNDMDQQLARITQSLADNESLDEQQILAELTNIAARIEAYRAHTTFRFSATRAYHRLVLTRLEELREDEVSGHLTITEFMTRRLTPAVKTCEAVNERLEDLSRRVDRASEMMRTRVELAIQSQNQQLLSSMDRRSRIQLMMQHTVEGFSVVAISYYLIGLLKLGLDALTGTGLTINEPLVTGLAIPVVMVLVFIGIRTIHHRFIRMARRQ” here?
Answer: The protein production was “failed”.

Question: With “MSAECWAALLHDPMTLDMDAVLSDFVRSTGAEPGLARDLLEGKNWDLTAALSDYEQLRQVHTANLPHVFNEGRG” as the sequence, how does the protein production read?
Answer: Its protein production is “not failed”.

Question: For “MSAEEKNLIEILEEGHKVDVVKYIDYVSAPQAGAIATFSGTTRDMFEGKTVLELRYEAYVPMATRCLSSICTTARSTWDIHKIAVAHRLGPVPVGETSVLIAVSSVHRADGLDACKFLIDELKASVPIWKKEVYTNGEIWKENSEFMEKRLELAEKRDSIVKKTVVEEHRRRGCCGSKVRVEEDEEHKDITGDNKSSS”, which protein production is on record?
Answer: The protein production was “failed”.

Question: Which protein production does the source give for “MSAFHIRAEQSRDISAIHDVTEAAFTGIEHSDGTEQDLVDKLRAAKALSLSLVAEADGEVIGHIAASEVLIGGGVQGWFGIGPVSVRPDKQQQGVGIALMGSALDQLRAEGAGGIVLLGDPGYYRRFGFEVVPGLVYPDAPAEFFMAVCLNAPAFPQGVVEYHSAFGG” here?
Answer: Its protein production is “failed”.

Question: For “MSAGLTGIRVAVIGGDDREIYMIPELQKLGAYIVGVGFEKAAPIQGVTLLSSPLEAVEKADVLLFPMYGTDERGDVKAKYSETPIVLNKELLKAVSPKVPLFIGWARPALKSAAEMLGIQIVETANLDQLAILNSIPSAEGAIQMAMEASPITIHGSESFVLGLGRCGWTLARTLKGMGAHVTGVARKPADLARALEMGLEAVHFADLDEKIGKAELIFNTVPHLILDKVMLEQVNHEAVIIDIASLPGGTDFEYAKAKGIKAMLAPGLPGKVAPKAAGKILAQVYPQLILRHLTTKNASLKF”, which protein production is on record?
Answer: The protein production was “failed”.

Question: For “MSAKDLPNGGPRLIDRYLLRLLLWPLAACLGVTVIALLLERILRLLDVLSQSSARFGYVAQLAANLVPHYLGLALPVAFFVALFIVIVKLSDGSEIDALLASGQSLERIAAPFVAVGVLLSVFSIIVFGYMQPYSRYAYRAVMHAAVNAGWNGRLAGGAFIDDKGSLLTADSADIAGQRLTRVFIRRLDAKGQEEIITAASADLKMDPDGKTITMDLRDGRRIAHDAYGTYRNLAFTSLTTQTPLSAAAVLLRDRGGDERELTMGELRREAKSPDPVVSKGTLLSEFYGRLARAAFLPFLPLLAFPLGLASKRGNRAPGLIMAGLLLLAFQHSLLLGQGMAKAGKADAFAAIWIPFTLFAALSVWLFVGSRTRPGDTPVSRLVRRINTLVTHALRLLPQPKKRQAA”, which protein production is on record?
Answer: Its protein production is “failed”.

Question: Which protein production does the source give for “MSAPFHSALLDALNQRVVIGDGAMGTMLQAADLTLDDFLGLEGCNEILNDTRPDVLKDIHRAYFEAGADAVETNTFGCNLPNLADYDISDRIRELAEKGTRLARDVADEMGPGRDGMGRFVLGSMGPGTKLPTLGHAPFAILRDAYAEAAMGMIDGGADAILVETCQDLLQVKAAILGSQRAMETLGSRLPIITHVTVETTGTMLLGSEIGAALTALEPLGIDMIGLNCATGPAEMSEHLRHLSKYSSLPVSVMPNAGLPQLGPNGAEYPLTAEELAEALSGFVTEFGLGLVGGCCGTTPEHIRQVAEAVRLVEKAERNPVHESGTSSLYTAVPFQQDASILMIGERTNTNGSKAF” here?
Answer: Its protein production is “failed”.

Question: For “MSAPHDSHTLINVLTLNAHMGFDLLKRRFILAALREAIREVCAEIVCLQEVLGEHALHARRHAQWPAVAHYEYLAEMLWPQFSYGRNAVYPHGHHGNAVLSKFPISSFANHDVSVPGHEPRGVLHAVLQVPGWSEELQVFCVHLGLHEAHRQQQIGLLCARVAALSADAPVVVAGDFNDWRARGHPLLTRCGLVEAVECMHGRVARSFPSRFPVLPLDRIYLRNLRVVQARVLSGLPWSRLSDHLPLLASIAP”, which protein production is on record?
Answer: The protein production was “failed”.

Question: Which protein production does the source give for “MSAPIEQPAWTKRMNANPQSQAAPVSAAQQDLQRLRTHLNTQIIGQSDLVDAMLIALLADGHMLVEGAPGLAKTRAIHVLSRGVEADFQRIQFTPDLLPADLTGTEVYRPQDGSFHFQPGPLFHNLVLADEINRSPAKVQSALLEAMAERQITVGRKTYPLPALFLVMATQNPIEQEGTYPLPEAQLDRFLMYVRIGYPGAEQEKAILRLVRGEAGRPECRAAEAMEPVSQQTLFSAREEVLGVYLAEALEDYLLQLILATREPARYGDSLARWILYGVSPRATLALDRCARARAWLDGRDYVTPDDIQALAPAILRHRLILSYEAEAEGVSSDQVVKDLLRRIAVP” here?
Answer: The protein production was “failed”.

Question: For “MSAPLFSVVVPAYNQHKFIDSCLTSLQRQTLTDFEVFVVDDCSTDDTGEQIAALIKGDDRFHVITHAHNRGVSAARNSGMAAAKGKYLCFVDGDDWVEPDFLATFLAAYRSAPDTQLVVCGHYGYLAVPSPAKTYNQKDLIANINFGTVGGFSWNKAFIRSIITTHHLKFNEDIDFLEDQLFAFRYANYVQSSEYVPDRTYHYRWRFRSNLAHIGIPFFTARRKMMKILKQENKQVLNEDWNNQLEHHHHHH”, which protein production is on record?
Answer: The protein production was “failed”.
